# Patent publication US5989804, “E6 binding proteins” (New England Medical Center Hospitals, Inc., dated 1999)
# Target: in vitro-translated 35S-labeled HPV16 E6 (human papillomavirus type 16, UniProt P03126, 35S-labeled cysteine or methionine)
# Test: GST pull-down of 35S-labeled in vitro-translated HPV-16 E6
binder,measurement,value
ILVEKDRFVNDYDKDNDGRLDPQELLPWVVPNNQGI (other) [GSTSD7EF5],binding result,no binding
